According to the Human Domainome abundance scans (Beltran et al. 2025):
± gives the uncertainty stated by the source.

B1: Histone H1t, residues 44 to 112; numbered along this chain, P22492 (parent)
chain: VSKLITEALSVSQERVGMSLVALKKALAAAGYDVEKNNSRIKLSLKSLVNKGILVQTRGTGASGSFKLS

Variants of: B1
Assay: abundance fitness (aPCA) (normalised: wild type 0, dead -1); higher = more abundant; growth selection in yeast, the domain comes from the species named
Conditions: Homo sapiens

Variant | abundance fitness
VSKLITEALSVSQERVGMSLVALKKALAAAGYDVEKNNSRRKLSLKSLVNKGILVQTRGTGASGSFKLS [I41R] | -0.514 ± 0.034
VSKLITEALSVSQERVGMSLVALKKALAAAGYDVEKNNSRTKLSLKSLVNKGILVQTRGTGASGSFKLS [I41T] | -0.56 ± 0.039
VSKLITEALSVSQERVGMSLVALKKALAAAGYDVEKNNSRVKLSLKSLVNKGILVQTRGTGASGSFKLS [I41V] | -0.308 ± 0.041
VSKLITEALSVSQERVGMSLVALKKALAAAGYDVEKNNSRWKLSLKSLVNKGILVQTRGTGASGSFKLS [I41W] | -0.113 ± 0.043
VSKLITEALSVSQERVGMSLVALKKALAAAGYDVEKNNSRYKLSLKSLVNKGILVQTRGTGASGSFKLS [I41Y] | -0.43 ± 0.057
VSKLITEALSVSQERVGMSLVALKKALAAAGYDVEKNNSRIALSLKSLVNKGILVQTRGTGASGSFKLS [K42A] | -0.098 ± 0.025
VSKLITEALSVSQERVGMSLVALKKALAAAGYDVEKNNSRIDLSLKSLVNKGILVQTRGTGASGSFKLS [K42D] | -0.096 ± 0.065
VSKLITEALSVSQERVGMSLVALKKALAAAGYDVEKNNSRIELSLKSLVNKGILVQTRGTGASGSFKLS [K42E] | 0.182 ± 0.038
VSKLITEALSVSQERVGMSLVALKKALAAAGYDVEKNNSRIFLSLKSLVNKGILVQTRGTGASGSFKLS [K42F] | -0.413 ± 0.12
VSKLITEALSVSQERVGMSLVALKKALAAAGYDVEKNNSRIGLSLKSLVNKGILVQTRGTGASGSFKLS [K42G] | -0.188 ± 0.039
VSKLITEALSVSQERVGMSLVALKKALAAAGYDVEKNNSRIHLSLKSLVNKGILVQTRGTGASGSFKLS [K42H] | -0.158 ± 0.073
VSKLITEALSVSQERVGMSLVALKKALAAAGYDVEKNNSRIILSLKSLVNKGILVQTRGTGASGSFKLS [K42I] | 0.094 ± 0.12
VSKLITEALSVSQERVGMSLVALKKALAAAGYDVEKNNSRILLSLKSLVNKGILVQTRGTGASGSFKLS [K42L] | 0.048 ± 0.031
VSKLITEALSVSQERVGMSLVALKKALAAAGYDVEKNNSRIMLSLKSLVNKGILVQTRGTGASGSFKLS [K42M] | 0.14 ± 0.05
VSKLITEALSVSQERVGMSLVALKKALAAAGYDVEKNNSRINLSLKSLVNKGILVQTRGTGASGSFKLS [K42N] | -0.379 ± 0.19
VSKLITEALSVSQERVGMSLVALKKALAAAGYDVEKNNSRIPLSLKSLVNKGILVQTRGTGASGSFKLS [K42P] | -0.682 ± 0.029
VSKLITEALSVSQERVGMSLVALKKALAAAGYDVEKNNSRIRLSLKSLVNKGILVQTRGTGASGSFKLS [K42R] | -0.125 ± 0.041
VSKLITEALSVSQERVGMSLVALKKALAAAGYDVEKNNSRISLSLKSLVNKGILVQTRGTGASGSFKLS [K42S] | -0.108 ± 0.031
VSKLITEALSVSQERVGMSLVALKKALAAAGYDVEKNNSRITLSLKSLVNKGILVQTRGTGASGSFKLS [K42T] | -0.045 ± 0.035
VSKLITEALSVSQERVGMSLVALKKALAAAGYDVEKNNSRIVLSLKSLVNKGILVQTRGTGASGSFKLS [K42V] | -0.024 ± 0.028

Variant | abundance fitness
VSKLITEALSVSQERVGMSLVALKKALAAAGYDVEKNNSRIYLSLKSLVNKGILVQTRGTGASGSFKLS [K42Y] | -0.138 ± 0.086
VSKLITEALSVSQERVGMSLVALKKALAAAGYDVEKNNSRIKASLKSLVNKGILVQTRGTGASGSFKLS [L43A] | 0.18 ± 0.032
VSKLITEALSVSQERVGMSLVALKKALAAAGYDVEKNNSRIKDSLKSLVNKGILVQTRGTGASGSFKLS [L43D] | 0.036 ± 0.13
VSKLITEALSVSQERVGMSLVALKKALAAAGYDVEKNNSRIKESLKSLVNKGILVQTRGTGASGSFKLS [L43E] | 0.229 ± 0.035
VSKLITEALSVSQERVGMSLVALKKALAAAGYDVEKNNSRIKGSLKSLVNKGILVQTRGTGASGSFKLS [L43G] | -0.061 ± 0.036
VSKLITEALSVSQERVGMSLVALKKALAAAGYDVEKNNSRIKHSLKSLVNKGILVQTRGTGASGSFKLS [L43H] | 0.015 ± 0.043
VSKLITEALSVSQERVGMSLVALKKALAAAGYDVEKNNSRIKKSLKSLVNKGILVQTRGTGASGSFKLS [L43K] | 0.181 ± 0.026
VSKLITEALSVSQERVGMSLVALKKALAAAGYDVEKNNSRIKNSLKSLVNKGILVQTRGTGASGSFKLS [L43N] | 0.266 ± 0.044
VSKLITEALSVSQERVGMSLVALKKALAAAGYDVEKNNSRIKPSLKSLVNKGILVQTRGTGASGSFKLS [L43P] | -0.483 ± 0.033
VSKLITEALSVSQERVGMSLVALKKALAAAGYDVEKNNSRIKQSLKSLVNKGILVQTRGTGASGSFKLS [L43Q] | 0.172 ± 0.027
VSKLITEALSVSQERVGMSLVALKKALAAAGYDVEKNNSRIKRSLKSLVNKGILVQTRGTGASGSFKLS [L43R] | 0.049 ± 0.032
VSKLITEALSVSQERVGMSLVALKKALAAAGYDVEKNNSRIKSSLKSLVNKGILVQTRGTGASGSFKLS [L43S] | 0.034 ± 0.088
VSKLITEALSVSQERVGMSLVALKKALAAAGYDVEKNNSRIKVSLKSLVNKGILVQTRGTGASGSFKLS [L43V] | -0.617 ± 0.38
VSKLITEALSVSQERVGMSLVALKKALAAAGYDVEKNNSRIKLALKSLVNKGILVQTRGTGASGSFKLS [S44A] | 0.324 ± 0.2
VSKLITEALSVSQERVGMSLVALKKALAAAGYDVEKNNSRIKLCLKSLVNKGILVQTRGTGASGSFKLS [S44C] | 0.217 ± 0.18
VSKLITEALSVSQERVGMSLVALKKALAAAGYDVEKNNSRIKLELKSLVNKGILVQTRGTGASGSFKLS [S44E] | 0.175 ± 0.29
VSKLITEALSVSQERVGMSLVALKKALAAAGYDVEKNNSRIKLFLKSLVNKGILVQTRGTGASGSFKLS [S44F] | -0.298 ± 0.098
VSKLITEALSVSQERVGMSLVALKKALAAAGYDVEKNNSRIKLHLKSLVNKGILVQTRGTGASGSFKLS [S44H] | -0.126 ± 0.044
VSKLITEALSVSQERVGMSLVALKKALAAAGYDVEKNNSRIKLILKSLVNKGILVQTRGTGASGSFKLS [S44I] | -0.239 ± 0.072
